In patent US20150239950A1 (SALK INSTITUTE FOR BIOLOGICAL STUDIES, published 2015):
Positions count from the first letter of the chain named. Like-named read-outs stand apart in the source and are kept apart here.

T1: BMP6 homodimer (mature domain of human BMP6, residues 1-132) (human, UniProt P22004 382-513)
T1 sequence: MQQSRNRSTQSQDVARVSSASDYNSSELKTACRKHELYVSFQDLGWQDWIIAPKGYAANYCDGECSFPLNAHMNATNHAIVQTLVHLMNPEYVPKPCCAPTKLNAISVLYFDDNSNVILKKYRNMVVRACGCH

B1: AB2-008 (1b2a3a4a5a6a activin/BMP-2 chimera) (ligand)
chain: MQAKHKQRKRLKSSCKRHPLYVDFSDVGWNDWIIAPSGYHANYCEGECPSHIAGTSGSSLSFHSTLVNHYRMRGHSPFANLKSCCVPTKLRPMSMLYYDDGQNIIKKDIQNMIVEECGCS
notes: The entry includes the initiator Met
B2: AB2-011 (1b2b3b4b5a6a activin/BMP-2 chimera) (ligand)
chain: MQAKHQQRKRLKSSCKRHPLYVDFSDVGWNDWIVAPPGYHAFYCHGECPFPLADHLNSTNHAIVQTLVNSVNSKIPKACCVPTKLRPSMLYYDDGQNIIKKDIQNMIVEECGCS
B3: AB2-015 (1b2a3b4b5b6a activin/BMP-2 chimera) (ligand)
chain: MQAKHKQRKRLKSSCKRHPLYVDFSDVGWNDWIIAPSGYHANYCDGECPFPLADHLNSTNHAIVQTLVNSVNSKIPKACCVPTELSAISMLYYDDGQNIIKKDIQNMIVEECGCS
B4: AB2-012 (1b2b3b4b5b6a activin/BMP-2 chimera) (ligand)
chain: B3 chain with I34V, S37P, N42F, D45H, Q97R
B5: AB2-004 (1b2a3b4b5a6a activin/BMP-2 chimera) (ligand)
chain: B3 chain with E84K, S86R, A87P, I88M
B6: Activin-βA (ligand)
chain: GLECDGKVNICCKKQFFVSFKDIGWNDWIIAPSGYHANYCEGECPSHIAGTSGSSLSFHSTVINHYRMRGHSPFANLKSCCVPTKLRPMSMLYYDDGQNIIKKDIQNMIVEECGCS
notes: also called Activin-A
B7: BMPRIa-ECD (extracellular domain of human BMPRIa, residues 1-129) (receptor, UniProt P36894 24-152, looked up)
chain: QNLDSMLHGTGMKSDSDQKKSENGVTLAPEDTLPFLKCYCSGHCPDDAINNTCITNGHCFAIIEEDDQGETTLASGCMKYEGSDFQCKDSPKAQLRRTIECCRTNLCNQYLQPTLPPVVIGPFFDGSIR
notes: extracellular domain; also called type I receptor ECD
B8: BMP2/BMP6 heterodimer (ligand)
chain 1: QAKHKQRKRLKSSCKRHPLYVDFSDVGWNDWIVAPPGYHAFYCHGECPFPLADHLNSTNHAIVQTLVNSVNSKIPKACCVPTELSAISMLYLDENEKVVLKNYQDMVVEGCGCR
chain 2: T1 sequence
notes: also called B2/B6
B9: BMP2 homodimer (mature domain of human BMP2) (ligand)
chain: B8 chain 1
notes: also called BMP-2wt; BMP-2ma
B10: ActRIIb-ECD (extracellular domain of mouse ActRIIb, residues 1-98) (receptor, UniProt P27040 19-137, looked up)
chain: SGRGEAETRECIYYNANWELERTNQSGLERCEGEQDKRLHCYASWRNSSGTIELVKKGCWLDDFNCYDRQECVATEENPQVYFCCCEGNFCNERFTHLPEPGGPEVTYEPPPTAPTLLT
notes: extracellular domain; also called type II receptor ECD

Legend:
[1] = biological target: T2, ActRII-ECD (extracellular domain of mouse ActRII, residues 1-102) (mouse, UniProt P27038 20-135); test: SPR (BIAcore), receptor ECD immobilized, ligand flowed; 1:1 Langmuir with mass transfer; single trial
T2 construct: extracellular domain; also called type II receptor ECD
T2 sequence (P27038 20-135): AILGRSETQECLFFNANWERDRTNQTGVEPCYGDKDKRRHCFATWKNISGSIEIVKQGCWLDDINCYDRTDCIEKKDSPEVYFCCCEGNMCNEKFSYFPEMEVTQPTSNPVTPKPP
Experimental: (§1) The receptors were immobilized to the chip surface with the ligands flowed over the surface. The data were fit to a kinetic model (1:1 Langmuir binding with mass transfer) in which KD is calculated as koff/kₒₙ. The table reports data from a single trial.

[2] = biological target: T2, ActRII-ECD (extracellular domain of …); test: SPR (BIAcore), receptor ECD immobilized
[3] = biological target: B7; test: SPR (BIAcore), receptor ECD immobilized, ligand flowed; 'No Binding indicates that the interaction was not detectable'
Experimental: as §1

[4] = biological target: T2, ActRII-ECD (extracellular domain of …); test: SPR (BIAcore), receptor ECD immobilized, ligand flowed; KD = koff/kon; single trial
Experimental: as §1

[5] = biological target: T2, ActRII-ECD (extracellular domain of …); test: SPR (BIAcore), receptor ECD immobilized, ligand flowed; 1:1 Langmuir with mass transfer; single trial; remark: listed apart in the source
Experimental: as §1

[6] = biological target: T2, ActRII-ECD (extracellular domain of …); test: SPR (BIAcore), receptor ECD immobilized, ligand flowed; KD = koff/kon; single trial; remark: listed apart in the source
Experimental: as §1

[7] = biological target: Cripto (mouse Cripto construct transfected into HEK293T cells) (mouse) (UniProt P51865); test: cell-based or functional assay
Cripto (mouse Cripto construct transfected into HEK293T cells) (mouse), sequence (P51865 18-134): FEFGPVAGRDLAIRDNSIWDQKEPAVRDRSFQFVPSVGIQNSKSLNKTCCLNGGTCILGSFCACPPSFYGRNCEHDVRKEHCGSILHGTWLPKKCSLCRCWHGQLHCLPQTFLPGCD

[8] = biological target: T1, BMP6 homodimer (mature domain of human …); test: SPR, receptor binding affinity
[9] = biological target: T1, BMP6 homodimer (mature domain of human …); test: SPR (BIAcore), receptor ECD immobilized, ligand flowed; KD = koff/kon
Experimental: (§2) The affinity of the ligands to BMPRIa, ActRII, and ActRIIb was monitored by using a Biacore 3000 (GE Healthcare) and the data were analyzed by using BlAevaluation software ver. 4.1 (GE Healthcare). Using primary amine coupling, receptor ECDs were immobilized on a CM5 chip. The receptors were immobilized independently on flow cells 2-4 for 10 minutes at a flow rate of 5 μL/min and a concentration of 20 μM in 10 mM Na acetate, pH 4.0. Flow cell 1 was left blank, no immobilized protein, as a negative control. […] A minimum of five concentrations, plus a zero concentration, were run per sample for kinetic analysis and the data were fit by using a global 1:1 Langmuir binding with mass transfer.
(§3) Ligand affinity data from BIAcore experiments. The BIAcore data is shown as the dissociation rate, koff, and the association rate, kₒₙ, based on a global fit using the kinetic model 1:1 Langmuir binding with mass transfer. The binding constant KD is calculated as koff/kₒₙ. The receptors were immobilized to the chip surface, with the ligands flowed over the surface.

[10] = biological target: T2, ActRII-ECD (extracellular domain of …); test: native-PAGE receptor ECD saturation assay, 5 µg ActRII-ECD with 10 µg ligand, Coomassie densitometry
[11] = biological target: B10; test: SPR, receptor binding affinity
[12] = biological target: B10; test: SPR (BIAcore), receptor ECD immobilized, ligand flowed; KD = koff/kon
Experimental: as §2, §3

BMP2/BMP6 heterodimer [13] = biological target: B8; test: SPR, receptor binding affinity
[14] = biological target: T1, BMP6 homodimer (mature domain of human …); test: SPR (BIAcore), receptor ECD immobilized, ligand flowed; 1:1 Langmuir with mass transfer
Experimental: as §2, §3

BMP2/BMP6 heterodimer [15] = biological target: B8; test: SPR (BIAcore), receptor ECD immobilized, ligand flowed; KD = koff/kon
Experimental: as §2, §3

Binder: B1
koff [1]: 0.000824 s⁻¹
kon [1]: 2.39e+06 M⁻¹ s⁻¹
fold weaker affinity against activin-βA [2]: ~1.7 fold
binding result [3]: no binding
Kd [4]: 0.344 nM

Binder: B2
koff [5]: 0.000339 s⁻¹
kon [5]: 646000 M⁻¹ s⁻¹
Kd [6]: 0.525 nM

Binder: B3
fold higher binding against BMP-2 [2]: ~100 fold
binding result [3]: no binding
koff [5]: 0.000371 s⁻¹
kon [5]: 1.61e+06 M⁻¹ s⁻¹
Kd [6]: 0.23 nM

Binder: B4
koff [5]: 0.0016 s⁻¹
kon [5]: 3.39e+06 M⁻¹ s⁻¹
Kd [6]: 0.472 nM

Binder: B5
koff [5]: 0.000187 s⁻¹
kon [5]: 491000 M⁻¹ s⁻¹
Kd [6]: 0.381 nM

Binder: B6
koff [1]: 0.000716 s⁻¹
kon [1]: 3.52e+06 M⁻¹ s⁻¹
decrease in Smad-2/3 luciferase signaling in HEK293T cells in the presence of Cripto [7]: 43%
binding result [3]: no binding
koff [5]: 0.000716 s⁻¹
kon [5]: 3.52e+06 M⁻¹ s⁻¹
Kd [4]: 0.203 nM
Kd [6]: 0.203 nM

Binder: B7
Kd [8]: 62.8 nM
Kd [9]: 62.8 nM

Binder: B8
fold decrease of the free type II receptor ECD band intensity against receptor ECD alone [10]: 9 fold

Binder: B9
Kd [11]: 38.5 nM
Kd [6]: 36.8 nM
Kd [12]: 38.5 nM

Binder: B10
Kd (BMP2/BMP6 heterodimer [13]): 6.52 nM
koff (BMP2/BMP6 heterodimer [13]): 0.00861 s⁻¹
kon (BMP2/BMP6 heterodimer [13]): 1.32e+06 M⁻¹ s⁻¹
Kd [8]: 6.68 nM
koff [8]: 0.00182 s⁻¹
kon [8]: 273000 M⁻¹ s⁻¹
koff [14]: 0.00182 s⁻¹
kon [14]: 273000 M⁻¹ s⁻¹
Kd (BMP2/BMP6 heterodimer [15]): 6.52 nM
Kd [9]: 6.68 nM
